Data as given in patent publication US20210393745A1, “OLIGOMER EXTENDED INSULIN-FC CONJUGATES AND THEIR MEDICAL USE” (Novo Nordisk A/S, priority 2018, published 2021).

Assay: In vivo PK after s.c. dosing, streptozotocin treated rats
Set-up: species or system Sprague-Dawley rat
Conditions: s.c. 30 nmol/kg, mean value
Procedure: Insulin-Fc conjugates were tested in vivo by subcutaneous (s.c.) administration to normal and streptozotocin (STZ) treated male Sprague-Dawley (SD) rats.
The rats were dosed s.c. in the neck region with a dose of 30 nmol/kg of the insulin-Fc conjugates. Blood samples for blood glucose and plasma insulin analysis were collected from the tongue vein up to 10 days post dosing. The insulin-Fc concentrations were measured by immuno-assay (LLOQ=1000 pM) and the resulting half-life values after s.c. dosing are shown in Table 4. The PK profiles for normal rats are shown in FIG. 3 and for streptozotocin treated rats in FIG. 6. Blood glucose (BG) was measured using Biosen S Line (EKF) and the BG and baseline corrected BG profiles for normal rats are shown in FIGS. 1 and 2 and for streptozotocin treated rats in FIGS. 4 and 5 respectively.

Row | Substance | PK STZ rat [T1/2, s.c. (h)]
1 | (A14E, A21G, A22(GQEP)11, A66G, A67Q, A68E, A69K^, A70P, B16H, B25H, B29R, desB30 human insulin)/(226A, 227G, 228P, 234A, 235K, 297E, 315Q, 384Q, des447 hIgG4-Fc(226-447))3,5-bis[(2-acetyl)amino]benzoyl Conjugate [Example 5.2] | 39 h
2 | (A14E, A21G, A22(GQEP)12, A70K^, A71P, B25H, B29R, desB30 human insulin)/(226A, 227G, 228P, 234A, 235K, 297E, 315Q, 384Q, des447 hIgG4-Fc(226-447))3,5-bis[(2-acetyl)amino]benzoyl Conjugate [Example 5.1] | 24 h
